Reference: US20200199225A1

Biological target: BCRs exhibiting the target structure on primary B-cells from the blood of leukemia patients
Test: cell-based or functional assay

lymphocyte count in the flow-through after double purification over LS columns with antibody-conjugated MACS MicroBeads (start: 80,000 lymphocytes/µl) (lymphocytes/µl): < 5000
B1: AVA-mAb01 (antibody, V domains shown)
VH: QVQLQQSGPGLVQPSQSLSITCTVSGFSLTSYGIHWVRQSPGKGLEWLGVIWRGGGTDSNAAFMSRLSITKDNSKSQVFFKMNSLQADDTAIYYCARSRYDEEESMNYWGQGTSVTVSS
VL: QIVLTQSPASLSASVGETVTITCRASGNIHSYLAWYQQKQGKSPQLLVYNAKTLADGVPSRFSGSGSGTQYSLKINSLQPEDFGSYYCQHFWNTPPTFGAGTKLELK
